B1: ALSII: wild type E. coli acetolactate synthase II expressed from plasmid pALSII (protein)
chain: MNGAQWVVHALRAQGVNTVFGYPGGAIMPVYDALYDGGVEHLLCRHEQGAAMAAIGYARATGKTGVCIATSGPGATNLITGLADALLDSIPVVAITGQVSAPFIGTDAFQEVDVLGLSLACTKHSFLVQSLEELPRIMAEAFDVACSGRPGPVLVDIPKDIQLASGDLEPWFTTVENEVTFPHAEVEQARQMLAKAQKPMLYVGGGVGMAQAVPALREFLAATKMPATCTLKGLGAVEADYPYYLGMLGMHGTKAANFAVQECDLLIAVGARFDDRVTGKLNTFAPHASVIHMDIDPAEMNKLRQAHVALQGDLNALLPALQQPLNQYDWQQHCAQLRDEHSWRYDHPGDAIYAPLLLKQLSDRKPADCVVTTDVGQHQMWAAQHIAHTRPENFITSSGLGTMGFGLPAAVGAQVARPNDTVVCISGDGSFMMNVQELGTVKRKQLPLKIVLLDNQRLGMVRQWQQLFFQERYSETTLTDNPDFLMLASAFGIHGQHITRKDQVEAALDTMLNSDGPYLLHVSIDELENVWPLVPPGASNSEMLEKLS

Experiments:
E. coli ER2744 [1] = test: Plate assay: rescue of E. coli ER2744 growth on valine or valine plus SM M9 plates; assay type: cell-based
From the text: E. coli ER2744 strain was employed as an in vivo model system for assessing the activity of the herbicide resistant E. coli ALSII gene, genetically modified by a linker insertion between Q327 and C328. E. coli ER2744 is derived from wild type E. coli K12 that contains the active ALSI and ALSIII enzymes, but not an active ALSII. ALSI and ALSIII are two isoforms of ALS genes in E. coli, which are crucial for the synthesis of valine, isoleucine and leucine (LaRossa and Schloss, J. Biol. Chem. 259:8753-8757 (1984)). Their activity is sensitive to the valine feedback inhibition. Therefore, by saturating the growth medium with 100 μg/ml valine (Sigma, St. Louis, Mo.), ALSI and III will be inhibited and the cells will stop growing. By introducing a recombinant herbicide resistant ALSII (ALSIIm) into E. coli cells, their growth will be rescued since ALSII is resistant to valine inhibition.
Plate assays were conducted to examine the capability of ALSIIm-14 to rescue E. coli ER2744 from valine (100 μg/ml) or valine plus herbicide SM (50 μg/ml, Supelco Park, Bellefonte, Pa.) saturated M9 minimum medium plate (Sambrook et al., (1989)). The M9 medium contains 2 μg/ml Thiamin, 2 mM MgSO4, 0.1 mM CaCl2, 0.2% glucose, 50 μg/ml of kanamycin, 100 μg/ml of ampicillin and 0.3 mM IPTG. For the plating assay, 100 μl of 25 mg/ml Valine with or without 50 μl of 25 μg/ml Sulfometuron methyl (SM) was spread on M9 selection plate. To assay bacterial growth, overnight cultures were streaked on M9 plates with or without valine and/or SM. The plates were incubated at various temperatures (as indicated in FIG. 7) for 48 to 72 hrs before the pictures were taken. On the plate supplemented with valine, cells expressing either ALSII, ALSIIm or ALSIIm-14 were able to grow (FIG. 7-a). However, when both valine and SM was applied, only strains expressing herbicide-resistant ALSIIm or ALSIIm-14 were able to grow (FIG. 7-b).
The next step was to determine whether the spliced product, as the result of trans-splicing of the ALSIIm (ALSIIm(N)—INn and ALSIIm(C)—INc) fusion proteins, would render E. coli ER2744 resistant to valine and SM. The first experiment was to test the effect of co-expression of ALSIIm(N)—INn and ALSIIm(C)—INc fusion proteins on cell growth in valine saturated M9 minimum medium. In a plating assay (see Section 4.), all transformed cells grew well on M9 medium in the absence of valine (FIG. 9A-a). […] (FIG. 9A-b, 9A-c) in the presence of valine. […] (FIG. 9A-c) or lower temperatures (data not shown) from a valine plate.

E. coli ER2744 [2] = test: Quantitative liquid culture assay (OD600) of E. coli ER2744 in valine / SM M9 medium; assay type: cell-based; settings: 30° C.
Method: A quantitative liquid culture assay was performed to verify the results obtained from the plating assay. The liquid assay was performed as follows. A single colony was used to inoculate LB medium supplemented with kanamycin and ampicillin at 37° C. for 4 hours. Expression was induced by 0.3 mM IPTG and cell cultures were shifted to 30° C. for another 2 hrs. Then, 200 μL of equivalent OD600 8.0 was spun down, washed one time with M9 medium and resuspended in 200 μl M9 medium. 40 μl was aliquoted into 2 ml of appropriate culture medium and grown for 24-72 hours before its OD600 was measured. The concentration for valine is 100 μg/ml and for SM is 50 μg/ml. At 30° C., all transformed cells grew equally well in M9 minimum medium (FIG. 9B). […] To further compare the growth kinetics for trans-splicing mediated cell growth to wild type ALSII mediated cell growth, a time course study was performed (FIG. 9C).

| Molecule | cell growth on M9 plate in the presence of valine at both 30° C. and 37° C. (E. coli ER2744 [1]; 100 μg/ml valine) | cell growth in valine saturated M9 liquid medium (E. coli ER2744 [2]; 100 μg/ml valine) | cell growth on M9 plate with valine and herbicide SM (E. coli ER2744 [1]; 100 μg/ml valine and 50 μg/ml SM, 30° C., 0.3 mM IPTG) | cell growth on M9 plate supplemented with valine (E. coli ER2744 [1]; 100 μg/ml valine, 30° C., 0.3 mM IPTG) | cell growth in valine M9 liquid medium containing SM (E. coli ER2744 [2]; 100 μg/ml valine, 50 μg/ml SM) | growth rate, time course study (E. coli ER2744 [2]; M9 medium with 100 μg/ml valine) |
| --- | --- | --- | --- | --- | --- | --- |
| ALSIIm(N)—INn: fusion of ALSIIm N-terminal 327 residues and Ssp DnaE intein N-terminal 123 residues | did not grow | did not rescue cell growth | – | – | – | – |
| B1 | rescued the cells growth | allowed cells to grow | could not rescue cell growth | able to grow | no growth | fastest growth rate |

— patent US6858775B1, “Method for generating split, non-transferable genes that are able to express an active protein product” (New England Biolabs, Inc., priority 1999, dated 2005)
